These results are taken from article PMC5612953, “Stable MOB1 interaction with Hippo/MST is not essential for development and tissue growth control” (Nature Communications, 2017).

Where a chain is given by its changes, count along the chain named. A value given as a limit tells only on which side of the number the result lay.

The labels stand for the following.
T1: human NDR1 (residues 24-87), NTR (human, UniProt Q15208 24-87)
T1 construct: human NDR1, residues 24-87 (NTR); also called NTR of NDR1; source: E. coli BL21(DE3), purified (Ni-NTA)
T1 sequence (looked up): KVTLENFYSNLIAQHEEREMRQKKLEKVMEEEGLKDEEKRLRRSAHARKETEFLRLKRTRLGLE

T2: LATS2 (603-666, V610Y) (human, UniProt Q9NRM7 603-666, V610Y)
T2 construct: human LATS2, residues 603-666 (NTR), codon-optimized synthetic gene; also called LATS2(V610Y); source: E. coli BL21(DE3), purified (Ni-NTA)
T2 sequence (looked up): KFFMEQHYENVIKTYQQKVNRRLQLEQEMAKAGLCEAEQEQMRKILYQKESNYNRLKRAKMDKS

T3: LATS1 (640-703, V647Y) (human, UniProt O95835 640-703, V647Y)
T3 construct: human LATS1, residues 640-703 (NTR); also called LATS1(V647Y); source: E. coli BL21(DE3), purified (Ni-NTA)
T3 sequence (looked up): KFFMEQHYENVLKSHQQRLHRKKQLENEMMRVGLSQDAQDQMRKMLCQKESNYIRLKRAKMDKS

T4: human NDR2 (residues 25-88), N-terminal regulatory domain (NTR) (human, UniProt Q9Y2H1 25-88)
T4 chain: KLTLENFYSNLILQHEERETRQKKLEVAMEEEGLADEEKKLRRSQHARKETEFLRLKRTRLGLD

T5: human LATS1 (residues 640-703), NTR (human, UniProt O95835 640-703)
T5 chain: T3 sequence (looked up) with Y8V

T6: LATS1 (640-703, V647Y) (human, UniProt O95835 640-703, V647Y)
T6 sequence: T3 sequence (looked up)

T7: human NDR1 (residues 24-87), NTR (human, UniProt Q15208 24-87)
T7 chain: T1 sequence (looked up)

T8: human LATS2 (residues 603-666), NTR (human, UniProt Q9NRM7 603-666)
T8 chain: T2 sequence (looked up) with Y8V

T9: LATS2 (603-666, V610Y) (human, UniProt Q9NRM7 603-666, V610Y)
T9 sequence: T2 sequence (looked up)

T10: recombinant full-length MOB1A(D63V) (human, UniProt Q9H8S9 1-216, D63V)
T10 construct: human MOB1A, full length; also called MOB1(D63V); source: E. coli, purified as MOB1A (33-216) (Ni-NTA)
T10 sequence (looked up): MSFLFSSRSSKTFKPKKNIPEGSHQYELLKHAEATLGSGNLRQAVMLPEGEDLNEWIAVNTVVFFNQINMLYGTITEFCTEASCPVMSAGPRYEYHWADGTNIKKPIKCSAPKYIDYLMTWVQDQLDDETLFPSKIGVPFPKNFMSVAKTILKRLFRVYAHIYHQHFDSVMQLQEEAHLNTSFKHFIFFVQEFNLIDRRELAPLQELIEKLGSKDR

T11: non-phosphorylated full-length MOB1A wild-type (human, UniProt Q9H8S9 1-216)
T11 construct: human MOB1A, full length; pET28a vector; also called unphosphorylated full-length MOB1; non-phosphorylated MOB1; source: E. coli, purified as MOB1A (33-216) (Ni-NTA)
T11 sequence (looked up): T10 sequence (looked up) with V63D

T12: unphosphorylated full-length MOB1A(K104E/K105E), recombinant (human, UniProt Q9H8S9 1-216, K104E | K105E)
T12 construct: human MOB1A, full length; also called Unphosphorylated MOB1(K104E/K105E); MOB1(K104E/K104E); source: E. coli, purified as MOB1A (33-216) (Ni-NTA)
T12 sequence (looked up): T10 sequence (looked up) with V63D, K104E, K105E

T13: phospho-MOB1(K104E/K105E), full length, recombinant (human, UniProt Q9H8S9 1-216, K104E | K105E, phosphorylated in vitro by MST2 (residues 2-308); the paper names Thr12 and Thr35 as the MST1/2 phosphorylation sites of MOB1)
T13 construct: human MOB1A, full length; source: E. coli, purified (Ni-NTA), then phosphorylated in vitro by MST2 (2-308)
T13 sequence (looked up): T10 sequence (looked up) with V63D, K104E, K105E

T14: unphosphorylated full-length MOB1A(K104E/K105E), recombinant (human, UniProt Q9H8S9 1-216, K104E | K105E)
T14 sequence: T10 sequence (looked up) with V63D, K104E, K105E

T15: human MOB1A (residues 33-216) (human, UniProt Q9H8S9 33-216)
T15 construct: human MOB1A, residues 33-216; modified pET28a vector; a zinc is associated with MOB1 in the structure; also called MOB1 (33-216); MOB1A (33-216); source: E. coli BL21(DE3), purified (Ni-NTA; complex by Superdex 200)
T15 sequence (looked up): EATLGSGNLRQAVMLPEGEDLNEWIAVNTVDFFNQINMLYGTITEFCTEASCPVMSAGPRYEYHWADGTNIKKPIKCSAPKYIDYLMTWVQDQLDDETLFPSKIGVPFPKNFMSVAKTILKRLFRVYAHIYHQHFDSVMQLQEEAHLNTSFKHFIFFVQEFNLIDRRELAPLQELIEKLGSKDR

T16: phospho-MOB1(K104E/K105E), full length, recombinant (human, UniProt Q9H8S9 1-216, K104E | K105E, phosphorylated in vitro by MST2 (residues 2-308); the paper names Thr12 and Thr35 as the MST1/2 phosphorylation sites of MOB1)
T16 sequence: T10 sequence (looked up) with V63D, K104E, K105E

B1: MST2-phosphorylated full-length MOB1A (phospho-MOB1) (natural protein, human, UniProt Q9H8S9 1-216, looked up)
chain: T10 sequence (looked up) with V63D
modifications: phosphorylated in vitro by MST2 (residues 2-308); the paper names Thr12 and Thr35 as the MST1/2 phosphorylation sites of MOB1
notes: human MOB1A, full length; the methods describe the phosphorylation reaction for MOB1A (33-216); results and legend call phospho-MOB1 full length; also called MST1/2-phosphorylated full-length MOB1; source: E. coli, purified (Ni-NTA), then phosphorylated in vitro by MST2 (2-308)
B2: human NDR2 (residues 25-88), N-terminal regulatory domain (NTR) (domain or fragment, UniProt Q9Y2H1 25-88, looked up)
chain: T4 chain
notes: human NDR2, residues 25-88 (NTR); also called NDR2 (25-88); NTR of NDR2; source: E. coli BL21(DE3), purified (Ni-NTA)

In assay [1] the target is T17, NDR1 (24-87, Y31V) (human, UniProt Q15208 24-87, Y31V). In words: ITC; 25 °C, ITC200; 25 mM HEPES pH 7.5, 200 mM NaCl, 1 mM EDTA; ~240 μM MOB1A injected (20 x 2 μl) into ~24 μM NDR1, NDR2, LATS1 or LATS2 fragment in the cell; single-site model.
The target in assay [2] is B2. The assay is described as above. The settings on record: both partners purified.
Assay [3] has as its target T1, human NDR1 (residues 24-87), NTR. Described as above. The settings on record: both partners purified.
Assay [4] deals with T2, LATS2 (603-666, V610Y). The assay is described as above. The settings on record: both partners purified.
Assay [5] concerns the target T3, LATS1 (640-703, V647Y). The assay is described as above. As to conditions: both partners purified.
The target in assay [6] is T4, human NDR2 (residues 25-88), N-terminal …. In words: ITC.
The target of assay [7] is T5, human LATS1 (residues 640-703), NTR. Briefly: ITC; MOB1 phosphorylated by MST2. For orientation: In ITC the heat of successive injections is recorded.
A further assay addresses NDR2 (25-88, Y32V) (human, UniProt Q9Y2H1 25-88, Y32V). In words: ITC; MOB1 phosphorylated by MST2.
For assay [8], the target named is T6, LATS1 (640-703, V647Y). Briefly: ITC; MOB1 phosphorylated by MST2.
Assay [9] has as its target T17, NDR1 (24-87, Y31V). Briefly: ITC; MOB1 phosphorylated by MST2.
In assay [10] the target is T7, human NDR1 (residues 24-87), NTR. Briefly: ITC; MOB1 phosphorylated by MST2.
Assay [11] addresses T8, human LATS2 (residues 603-666), NTR. In words: ITC; MOB1 phosphorylated by MST2.
Assay [12] has as its target T9, LATS2 (603-666, V610Y). In words: ITC; MOB1 phosphorylated by MST2.
The target of assay [13] is T10, recombinant full-length MOB1A(D63V). In words: SEC; purified full-length MOB1 proteins incubated with NDR2 (25-88), LATS1 (618-697) or MST2 (2-392) at 4 °C for 20 min in assembly buffer (20 mM Tris pH 8.0, 200 mM NaCl, 5 mM DTT); HiLoad 16/60 Superdex 200; fractions by SDS-PAGE and Coomassie; for LATS1 MOB1A was first phosphorylated by MST2 (2-308). As to conditions: both partners purified.

For assay [14], the target named is T11, non-phosphorylated full-length MOB1A …. In words: ITC; 25 °C, ITC200; 25 mM HEPES pH 7.5, 200 mM NaCl, 1 mM EDTA; ~240 μM MOB1A injected (20 x 2 μl) into ~24 μM NDR1, NDR2, LATS1 or LATS2 fragment in the cell; single-site model. As to conditions: both partners purified.
Assay [15] addresses T12, unphosphorylated full-length …. Described as above. As to conditions: both partners purified.
For assay [16], the target named is T13, phospho-MOB1(K104E/K105E), full length, …. The assay is described as above. As to conditions: both partners purified.
Assay [17] has as its target T14, unphosphorylated full-length …. Briefly: ITC.
Assay [18] has as its target T15, human MOB1A (residues 33-216). In words: crystal structure; MOB1A (33-216) and NDR2 (25-88) incubated 1:1 at 4 °C, complex purified on Superdex 200; crystals at 14 °C in 17% PEG 3350, 0.1 M HEPES pH 7.5, 150 mM magnesium chloride; 2.10 Å. The settings on record: both partners purified.
For assay [19], the target named is T16, phospho-MOB1(K104E/K105E), full length, …. In words: ITC; phosphorylated MOB1.

The Kd is the constant that tells how readily two partners part at equilibrium. Take B1: the fold decrease in affinity against wild-type NDR1 with NDR1 (24-87, Y31V) [1] stood at 20 fold. The “fold increase in affinity against LATS1 or LATS2” value in assay [2] and in [3] was at least 15 fold in each case. Further, in the assay with LATS2 (603-666, V610Y) [4], the “fold increase in affinity against wild-type LATS2” value came to 5 fold. Moreover, the “fold increase in affinity against wild-type LATS1” value with LATS1 (640-703, V647Y) [5] amounted to 5 fold. In addition, the Kd in [6] was 0.578 µM; in assay [7], 19.6 µM; with NDR2 (25-88, Y32V) it was 9.9 µM; in the assay with LATS1 (640-703, V647Y) [8], 4.42 µM; with NDR1 (24-87, Y31V) [9] it was 2.82 µM; in assay [10], 0.136 µM. Further, the Kd in [11] came to 8.93 µM; with LATS2 (603-666, V610Y) [12] it was 1.54 µM.
For the molecule B2, the binding result in assay [13], in [14], in assay [15], in assay [16] and in [18] was “binds” in each case. The Kd in assay [17] came out at 16.9 µM; in assay [19], 0.532 µM.
